Results on one molecule are retold here after patent US20110142842A1, “POLYPEPTIDES” (Medinnova AS, priority 2007, published 2011).

This assay concerns the target HLA-A*0201 (human), A*02:0. Briefly: REVEAL MHC binding assay (ProImmune).

FLYGVILTV (modifications not checked) [Peptide ID 131 … (TCR_TV, modified peptide)]: the % Pass/fail control (% of pass/fail control) was found to be 257.
